From publication PMC5672800 (Journal of medicinal chemistry, 2017)
Non-standard residues stand in square brackets, D forms with d. dPhe(4-I) = N[C@H](Cc1ccc(I)cc1)C(=O)O; d2Nal = N[C@H](Cc1ccc2ccccc2c1)C(=O)O; Bta = N[C@@H](Cc1csc2ccccc12)C(=O)O; Tic = O=C(O)[C@@H]1Cc2ccccc2CN1

Key:
[1] = target: T1, mouse melanocortin-4 receptor (mouse, UniProt P56450 1-332); assay: cell-based or functional assay
[2] = target: mouse melanocortin-1 receptor (mouse, UniProt Q01727 1-315); assay: cell-based or functional assay
[3] = target: mouse melanocortin-5 receptor (mouse, UniProt P41149 1-325); assay: cell-based or functional assay
[4] = target: T1, mouse melanocortin-4 receptor; assay: radioligand binding
[5] = target: T2, mouse melanocortin-3 receptor (mouse, UniProt P33033 1-323); assay: cell-based or functional assay
[6] = target: T2, mouse melanocortin-3 receptor; assay: radioligand binding

T2 sequence (P33033 whole entry): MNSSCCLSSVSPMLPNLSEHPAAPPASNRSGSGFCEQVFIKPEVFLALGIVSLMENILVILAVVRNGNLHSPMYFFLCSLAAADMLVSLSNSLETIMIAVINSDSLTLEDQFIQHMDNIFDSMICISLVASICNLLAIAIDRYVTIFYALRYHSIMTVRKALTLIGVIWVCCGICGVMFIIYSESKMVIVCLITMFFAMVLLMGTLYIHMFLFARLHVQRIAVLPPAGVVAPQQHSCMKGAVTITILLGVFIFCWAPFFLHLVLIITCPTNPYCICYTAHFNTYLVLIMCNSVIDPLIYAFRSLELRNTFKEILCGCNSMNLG
Chain of mouse melanocortin-5 receptor (P41149 whole entry): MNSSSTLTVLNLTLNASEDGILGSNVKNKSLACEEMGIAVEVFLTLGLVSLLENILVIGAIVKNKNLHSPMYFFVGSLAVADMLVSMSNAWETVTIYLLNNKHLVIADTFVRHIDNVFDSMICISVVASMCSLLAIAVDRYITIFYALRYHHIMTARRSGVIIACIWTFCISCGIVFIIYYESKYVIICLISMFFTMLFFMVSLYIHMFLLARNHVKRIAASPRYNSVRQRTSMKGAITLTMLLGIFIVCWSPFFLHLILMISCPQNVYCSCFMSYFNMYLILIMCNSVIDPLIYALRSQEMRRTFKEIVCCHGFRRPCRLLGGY
Chain of mouse melanocortin-1 receptor (Q01727 whole entry): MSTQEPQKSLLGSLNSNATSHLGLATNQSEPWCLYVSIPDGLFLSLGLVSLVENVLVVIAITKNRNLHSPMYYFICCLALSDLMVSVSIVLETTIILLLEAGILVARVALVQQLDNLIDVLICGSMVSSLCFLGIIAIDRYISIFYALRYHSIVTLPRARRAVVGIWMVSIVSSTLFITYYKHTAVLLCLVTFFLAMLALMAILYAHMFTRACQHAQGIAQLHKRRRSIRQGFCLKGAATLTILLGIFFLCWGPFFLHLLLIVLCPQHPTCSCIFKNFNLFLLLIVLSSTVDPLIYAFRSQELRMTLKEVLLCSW
T1 sequence (P56450 whole entry): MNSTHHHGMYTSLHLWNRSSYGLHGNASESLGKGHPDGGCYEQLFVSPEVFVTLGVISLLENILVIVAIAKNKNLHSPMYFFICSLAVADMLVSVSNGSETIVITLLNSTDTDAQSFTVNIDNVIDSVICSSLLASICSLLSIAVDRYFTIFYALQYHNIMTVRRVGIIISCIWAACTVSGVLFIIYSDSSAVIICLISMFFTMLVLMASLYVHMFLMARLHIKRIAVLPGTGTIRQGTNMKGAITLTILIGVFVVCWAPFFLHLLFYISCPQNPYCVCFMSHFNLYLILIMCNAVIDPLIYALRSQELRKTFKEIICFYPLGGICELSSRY

Binder | cAMP AlphaScreen, HEK293 cells stably expressing the receptor: agonist EC50 [1] | cAMP AlphaScreen, Schild analysis against NDP-MSH (blocks m5+m3): antagonist pA2 [1] | cAMP AlphaScreen, HEK293 cells stably expressing the receptor: agonist EC50 [2] | cAMP AlphaScreen, HEK293 cells stably expressing the receptor: agonist EC50 [3] | IC50 [4] | cAMP AlphaScreen, HEK293 cells stably expressing the receptor: agonist EC50 [5] | IC50 [6]
RRFF (HELM PEPTIDE1{[ac].R.R.[O=C([C@@H](Cc1ccc(I)cc1)N[*:1])[*:2]].F.[am]}$$$$V2.0; SMILES CC(=O)N[C@@H](CCCNC(=N)N)C(=O)N[C@@H](CCCNC(=N)N)C(=O)N[C@H](Cc1ccc(I)cc1)C(=O)N[C@@H](Cc1ccccc1)C(N)=O) [compound 25] | – | – | 55 nM | 340 nM | – | – | –
Ac-FR[dPhe(4-I)][Tic]-NH2 [compound 22] | > 100000 nM | 6.3 -Log(Ki) | 8 nM | 200 nM | 135 nM | 610 nM | 2500 nM
Ac-RR[dPhe(4-I)][Bta]-NH2 [compound 10] | – | 6.6 -Log(Ki) | 56 nM | 210 nM | 93 nM | 160 nM | –
Ac-RR[dPhe(4-I)][d2Nal]-NH2 [Ac-Arg-Arg-(pI)DPhe-DNal(2′)-NH2] | > 100000 nM | 6.4 -Log(Ki) | 280 nM | 500 nM | 220 nM | 57 nM | 440 nM
Ac-H[dF]RW-NH2 [Ac-His-DPhe-Arg-Trp-NH2] | – | – | – | 3 nM | – | – | –
Ac-HR[dPhe(4-I)][Bta]-NH2 [compound 11] | – | 6.4 -Log(Ki) | 70 nM | 270 nM | 275 nM | 460 nM | –
Ac-FR[dPhe(4-I)][Bta]-NH2 [compound 15] | > 100000 nM | 5.7 -Log(Ki) | 330 nM | 1300 nM | 850 nM | 930 nM | –

Second part, the binder after the results:

cAMP AlphaScreen, HEK293 cells stably expressing the receptor: agonist EC50 [1] | cAMP AlphaScreen, Schild analysis against NDP-MSH (blocks m5+m3): antagonist pA2 [1] | cAMP AlphaScreen, HEK293 cells stably expressing the receptor: agonist EC50 [2] | cAMP AlphaScreen, HEK293 cells stably expressing the receptor: agonist EC50 [3] | IC50 [4] | cAMP AlphaScreen, HEK293 cells stably expressing the receptor: agonist EC50 [5] | IC50 [6] | Binder
> 100000 nM | 7.8 -Log(Ki) | 0.51 nM | 8.8 nM | 13 nM | – | – | RRFX (HELM PEPTIDE1{[ac].R.R.[O=C([C@@H](Cc1ccc(I)cc1)N[*:1])[*:2]].[Tic].[am]}$$$$V2.0; SMILES CC(=O)N[C@@H](CCCNC(=N)N)C(=O)N[C@@H](CCCNC(=N)N)C(=O)N[C@H](Cc1ccc(I)cc1)C(=O)N1Cc2ccccc2C[C@H]1C(N)=O) [Ac-Arg-Arg-(pI)DPhe-Tic-NH2]
> 100000 nM | 7 -Log(Ki) | 0.71 nM | 17 nM | 83 nM | 40 nM | – | HRFX (HELM PEPTIDE1{[ac].H.R.[O=C([C@@H](Cc1ccc(I)cc1)N[*:1])[*:2]].[Tic].[am]}$$$$V2.0; SMILES CC(=O)N[C@@H](Cc1c[nH]cn1)C(=O)N[C@@H](CCCNC(=N)N)C(=O)N[C@H](Cc1ccc(I)cc1)C(=O)N1Cc2ccccc2C[C@H]1C(N)=O) [Ac-His-Arg-(pI)DPhe-Tic-NH2]
– | 6.4 -Log(Ki) | 7 nM | 250 nM | 43 nM | 600 nM | – | Ac-[d2Nal]R[dPhe(4-I)][Tic]-NH2 [compound 24]
